Assay [1] deals with N-WASPC in complex with Alexa647-labeled EspFU R′5 (UniProt O08816). The experiment in a line: SEC.
The target in another assay is EspFU R′1-5 (UniProt P0DJ88). The assay can be described thus: ITC. A general note: In ITC the heat of successive injections is recorded.
The target in another assay is EspFU R′5 (UniProt P0DJ88). The experiment in a line: ITC.
The target in a further assay is EspFU R′4-5 (UniProt P0DJ88). The experiment in a line: ITC.
EspFU R′4-5, sequence (P0DJ88 221-314): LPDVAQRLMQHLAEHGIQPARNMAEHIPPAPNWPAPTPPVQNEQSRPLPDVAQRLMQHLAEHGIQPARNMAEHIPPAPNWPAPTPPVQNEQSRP

WASP GBD (residues 242–310), sequence (P42768 242-310): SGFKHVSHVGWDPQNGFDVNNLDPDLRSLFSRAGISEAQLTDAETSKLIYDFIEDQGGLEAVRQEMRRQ
EspFU R′1-5, sequence (P0DJ88 80-314): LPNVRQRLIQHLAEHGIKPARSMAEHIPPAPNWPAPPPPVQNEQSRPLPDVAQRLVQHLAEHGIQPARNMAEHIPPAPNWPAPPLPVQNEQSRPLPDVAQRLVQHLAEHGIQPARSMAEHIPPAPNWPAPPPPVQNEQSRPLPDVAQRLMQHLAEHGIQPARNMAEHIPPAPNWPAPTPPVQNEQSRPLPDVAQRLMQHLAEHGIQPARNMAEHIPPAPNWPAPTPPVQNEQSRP
EspFU R′5, sequence (P0DJ88 221-267): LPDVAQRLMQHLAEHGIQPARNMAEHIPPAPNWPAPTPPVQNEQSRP
N-WASPC in complex with Alexa647-labeled EspFU R′5, sequence (O08816 193-501, chain 1 of 2): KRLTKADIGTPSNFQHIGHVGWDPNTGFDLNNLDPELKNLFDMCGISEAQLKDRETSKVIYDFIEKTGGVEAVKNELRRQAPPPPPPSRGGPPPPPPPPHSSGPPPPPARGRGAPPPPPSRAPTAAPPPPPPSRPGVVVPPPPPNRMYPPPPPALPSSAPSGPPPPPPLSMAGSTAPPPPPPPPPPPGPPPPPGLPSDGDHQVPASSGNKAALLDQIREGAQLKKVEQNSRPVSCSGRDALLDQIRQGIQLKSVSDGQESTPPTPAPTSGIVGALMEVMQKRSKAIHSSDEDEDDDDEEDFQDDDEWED
N-WASPC in complex with Alexa647-labeled EspFU R′5, sequence (P0DJ88 221-267, chain 2 of 2, further chain): as the sequence (P0DJ88 221-267) above

For Arp2/3 complex, the percent of the EspFU shifted into the EspFU-N-WASP-Arp2/3 complex in assay [1] was found to be 60%.

Consider “WASP GBD (residues 242–310) (from UniProt P42768 242-310) (domain or fragment)”, for which the Kd is 0.083 µM in the assay with EspFU R′1-5, 0.089 µM with EspFU R′5 and 0.095 µM in the assay with EspFU R′4-5. Moreover, the stoichiometry N with EspFU R′1-5 was determined as 5.7; with EspFU R′5 it was 1; with EspFU R′4-5, 1.8.

What is called Kd is the free concentration of one partner at which half of the binding sites on the other are occupied at equilibrium, for simple one-to-one binding. Read a low Kd as tighter binding. By stoichiometry N is commonly meant a count of units in the complex or per binding partner.

The record behind these values is PMC2567903.
